Experiments:
Assay type in all cases: biochemical
[1] = Enzyme activity assay, ε-fructosyl lysine substrate; settings: for Substrate specificity (% relative activity) εFL: crude enzyme sample; for relative activity for ε-fructosyl lysine: purified oxidase, compared to 100% activity for fructosyl valyl histidine
From the text: (§1) Enzyme activities of the oxidase of the invention and the oxidase of the invention that have less action on ε-fructosyl lysine (hereinafter, the term “the oxidases of the invention” may comprise both the oxidase of the invention and the oxidase of the invention that have less action on ε-fructosyl lysine) may principally be determined by determining the amount of α-ketoaldehyde, peptide, hydrogen peroxide or the like which are produced through enzyme reaction or by determining the amount of oxygen consumed by the enzyme reaction. Hereinafter, a method for determining the amount of hydrogen peroxide will be described as one example. Unless otherwise noted, fructosyl valyl histidine is used as a substrate for determining the activities of the oxidases of the invention. Titer of the enzyme is defined such that an amount of enzyme for producing 1 μmol hydrogen peroxide per minute is 1U as determined using a fructosyl valyl histidine substrate. 624 mg of fructosyl valyl histidine is dissolved in ion exchange water to a constant volume of 10 ml. Alternatively, fructosyl glycine or ε-fructosyl lysine of 357 mg or 462 mg, respectively, may be dissolved in ion exchange water to a constant volume of 10 ml to be used as a substrate. Fructosyl valine histidine was prepared as described in Japanese Patent Application Laid-Open (kohyo) No. 2001-95598. Fructosyl glycine and ε-fructosyl lysine were prepared according to a method of Horiuchi et al. (Agric. Biol. Chem., 53, 103-110, 1989; Agric. Biol. Chem., 55, 333-338, 1991). 2.7 ml of Reagent 1, 100 μl of Reagent 2 and 100 μl of enzyme solution are mixed and pre-heated at 30° C. for 5 minutes. Then, 100 μl of Reagent 3 is added and thoroughly mixed to determine absorbance at 510 nm using a spectrophotometer (U-[…], Hitachi, Ltd.). Measurement values indicate changes in the absorbance per minute at 510 nm after 1 to 3 minutes. A control solution was prepared in the same manner as described above except 100 μl ion exchange water was added instead of 100 μl Reagent 3. A standard solution of hydrogen peroxide and ion exchange water were used instead of Reagent 3 and the enzyme solution, respectively, to prepare a graph showing relationship with respect to the level of color. Referring to this graph, micromole of hydrogen peroxide produced per minute at 30° C. is calculated and used as the unit for expressing the activity of the enzyme solution. The presence of action on ε-fructosyl lysine can be determined in the same manner by using Reagent 3 (substrate solution) containing ε-fructosyl lysine substrate instead of fructosyl valyl histidine substrate.

[2] = Optimum pH of the enzyme reaction; settings: purified oxidase, 30° C.; for optimum pH (range): relative activities of 70% or higher
Procedure: For example, 200 mM acetic acid buffer (pH 3.0-6.0), 200 mM MES-NaOH (pH 6.0-7.0), 200 mM Tris buffer (pH 6.8-9.0), 200 mM potassium phosphate buffer (pH 6.5-8.0) and 200 mM glycine buffer (pH 8.0-12.0) are used as buffers to perform enzyme reactions at the indicated pH at 30° C., thereby determining optimal pH. For example, the oxidases of the invention may have an optimal pH at 5.0-9.0, preferably pH 6.0-8.0. For example, 200 mM acetic acid buffer (pH 3.0-6.0), 200 mM MES-NaOH (pH 6.0-7.0), 200 mM Tris buffer (pH 6.8-9.0), 200 mM potassium phosphate buffer (pH 6.5-8.0) and 200 mM glycine buffer (pH 8.0-12.0) are used as buffers to perform enzyme reactions at the indicated pH at 30° C., thereby determining optimal pH. For example, the oxidases of the invention that have less action on ε-fructosyl lysine may have an optical pH at 5.0-9.0, preferably at 6.0-8.0. Enzyme reaction was monitored in 200 mM acetic acid buffer (pH 3.0-6.0), 200 mM MES-NaOH (pH 6.0-7.0), 200 mM Tris buffer (pH 6.8-9.0), 200 mM potassium phosphate buffer (pH 6.5-8.0) or 200 mM glycine buffer (pH 8.0-12.0) at the indicated pH values at 30° C. […] Enzyme reaction was monitored in 200 mM acetic acid buffer (pH 4.0-6.0), 200 mM MES-NaOH (pH 6.0-7.0), 200 mM Tris buffer (pH 7.0-8.5), 200 mM potassium phosphate buffer (pH 6.0-8.0) or 200 mM glycine buffer (pH 8.0-9.0) at the indicated pH values at 30° C.

[3] = Enzyme activity assay, fructosyl glycine substrate; settings: for Substrate specificity (% relative activity) FG: crude enzyme sample; for relative activity for fructosyl glycine: purified oxidase, compared to 100% activity for fructosyl valyl histidine
From the text: as §1

[4] = Reaction with products obtained by digesting α-glycated hexapeptide with protease (96-well plate, 510 nm); settings: purified enzyme; compared to 100% activity for fructosyl glycine; monitored at 510 nm for 70 minutes
From the text: Glycated hemoglobin (HbA1c) may be treated with endoproteinase Glu-C to liberate α-glycated hexapeptide (fructosyl Val-His-Leu-Thr-Pro-Glu) from the glycated hemoglobin β-chain (Clin. Chem., 43; 10 1944-1951, 1997). Fructosyl Val-His-Leu-Thr-Pro-Glu (available from PEPTIDE INSTITUTE, INC), which is the same substance as the α-glycated hexapeptide, was used in the following experiment.
α-glycated hexapeptide (fructosyl Val-His-Leu-Thr-Pro-Glu, MW=856, available from PEPTIDE INSTITUTE, INC) (3.434 mg) was dissolved in 0.2 ml of water.
Molsin (15 mg, available from Kikkoman Corp.) was dissolved in 0.2 ml of buffer (10 mM acetate buffer, pH 3.0)
A (100 μl), B (5 μl) and C (5 μl) were mixed in a microtube and incubated at 37° C. for 17 hours. The reaction solution was then filtered using Microcon 10 (available from Amicon) to remove protease.
Developer solution consisted of the following materials:
• (a) Enzyme purified from Achaetomiella virescens ATCC 32393 • (b) Enzyme purified from Eupenicillium terrenum ATCC 18547 • (c) Enzyme purified from Coniochaeta sp. […]
Reaction substrate (D: a, b) (20 μl), developer solution (E) (20 μl) and the inventive oxidase (F: a-d) (10 μl) were mixed in 96-well assay plates for reaction. Each plate was monitored at 510 nm using a plate reader (Immuno Mini NJ-2300, available from Nalge Nunc International K. K.) for 70 minutes. […]

[5] = reference substrate set to 100%
[6] = relative to activity for ε-fructosyl lysine (100%)
[7] = relative to activity for fructosyl valyl histidine (100%)

Molecule	Substrate specificity (% relative activity) εFL [1, 5] [%]	relative activity for ε-fructosyl lysine [1] [%]	pH of maximum activity (most preferable pH) [2] [pH]	optimum pH (range) [2]	Substrate specificity (% relative activity) FG [3, 6] [%]	relative activity for fructosyl glycine [3] [%]	% relative activity on protease-digested α-glycated hexapeptide [4] [%]	Substrate specificity (% relative activity) εFL [1, 7] [%]	Substrate specificity (% relative activity) FG [3, 7] [%]
Coniochaeta sp. NISL 9330: fructosyl peptide oxidase produced by Coniochaeta sp. NISL 9330 (FERM BP-7798) with less action on ε-fructosyl lysine; amino acid sequence SEQ ID NO: 1 (protein, listed as Coniochaeta sp.) MTSNRADTRVIVVGGGGTIGSSTALHLVRSGYAPANITVLDTFEIPSAQSAGHDLNKIMGIRLRNKVDLQMSLEARQMWKEDELFQPFFHNTGRMDCEHTPEGIEDLKKQYQALHDAGAGLEKTHAWLDNEDEILSKMPLLQRDQIQGWKAIWSQDGGWLAAAKAINAIGQFLKERGVKFGFGGAGSFKQPLFDDEGTTCIGVETADGTKYYADKVVLAAGAWSPTLVDLEDQCCSKAWVYAHIQLTPEEAAEYKGVPVVYNGEFGFFFEPNEFGVIKVCDEFPGFSRFKEHQPYGAPSPKHISVPRSHAKHPTDTYPDASEVSIKKAIATFLPRFQDKELFNRALCWCTDTADAALLMCEHPKWKNFILATGDSGHSFKILPNVGKHVVELIEGRLPEEMAYQWRWRPGGDALKSRRAAPPKDLADMPGWKHDPKL	100	61	7.0	6.0-8.0 pH	65	39	10.0	–	–
Eupenicillium terrenum ATCC 18547: fructosyl peptide oxidase produced by Eupenicillium terrenum ATCC 18547 with less action on ε-fructosyl lysine; amino acid sequence SEQ ID NO: 3 (protein, listed as Eupenicillium terrenum) MAHSRASTKVVVVGGGGTIGSSTALHLIRSGYTPSNITVLDVYKTPSLQSAGHDLNKIMGIRLRNGPDLQLSLESLDMWQNDELFKPFFHQVGMIDCSSSKEGIENLRRKYQTLLDAGIGLEKTNVWLESEDEILAKAPNFTREQVKGWKGLFCTDGGWLAAAKAINAIGIFLQDKGVKFGFGGAGTFQQPLFAADGKTCIGLETTDGTKYFADKVVLAAGAWSPTLVDLEDQCVSKAWVFAHIQLTPKEADAYKNVPVVYDGEYGFFFEPNEYGVIKVCDEFPGFSRFKLHQPYGAASPKMISVPRSHAKHPTDTYPDASEVTIRKAIARFLPEFKDKELFNRTMCWCTDTADANLLICEHPKWKNFILATGDSGHSFKLLPNIGKHVVELLEGSLSQEMAGAWRWRPGGDALRSRRGAPAKDLAEMPGWKHDAHL	100	9.78	7.0	6.0-8.0 pH	1862	182	9.5	9.78	182

Source: patent US7419813B2, “Fructosyl peptide oxidase” (Kikkoman Corporation, priority 2001, dated 2008)
